Here are results for 1 molecule from patent US7932067B2, “Detection, isolation and uses of renalase (monoamine oxidase C)” (Yale University, priority 2004, dated 2011).

A value given as a limit tells only on which side of the number the result lay.

Assay [1] can be described thus: Amine oxidase assay of renalase (Amplex Red Monoamine Oxidase Assay Kit) with amines as substrates. Format: biochemical, human. The note with it: GST-renalase fusion protein, battery of amines as substrates, 2 mM. The method, then: Enzyme assay of renalase was carried out using an Amplex Red Monoamine Oxidase Assay Kit (Molecular Probes, Cat # A-12214) that provides one-step fluorometric method for the continuous measurement of amine oxidase activity using a fluorescence microplate reader. The assay is based on the detection of H2O2 in a horseradish peroxidase-coupled reaction using 10-acetyl-3,7-dihydroxy-phenoxazine (Amplex Red reagent), a highly sensitive and stable probe for H2O2. Experiments were carried out according to manufacturer's instruction with a final substrate concentration of 2 mM.
Therefore, we tested whether it had oxidase activity using a battery of amines as substrates. Renalase fusion protein in E. Coli was generated by cloning renalase cDNA into a Glutathione-S-Transferase (GST)-1-containing pGEX expression vector using the GST Gene Fusion System. […] Its enzymatic activity was unaffected by inhibitors of the FAD-containing amine oxidases, MAO-A and MAO-B (FIG. 4b).
We subsequently tested whether renalase has an oxidase activity using a battery of amines as substrates. […] Thus, it can be concluded that renalase is novel protein that metabolizes dopamine, norepinephrine and epinephrine.

Assay [2] concerns Sprague Dawley rats. Briefly: Hemodynamics measurements after bolus intravenous injection of recombinant renalase. Format: in vivo, rat. The procedure: Sprague Dawley rats (150-250 g) were anesthetized with inactin (100 mg/kg). A catheter (PE-240) was placed in the trachea for airway protection and in the left jugular vein (PE-50) for intravenous infusion of a maintenance fluid solution consisting of normal saline with 6.25% bovine albumin, at a rate of 1.5 ml per 100 g body wt per hour. Core temperature was monitored through a rectal thermometer and body temperature was maintained at 37° C. using a heating pad. Arterial pressure and heart rate were continuously monitored through a PE-50 catheter inserted in the left carotid artery and connected to a pressure transducer (ADInstruments, CO, USA). Hemodynamic recordings were digitized, stored and analyzed using a PowerLab/8SP data acquisition system (ADIntruments). The rats were allowed 1 h to recover after completion of the surgical procedure, and the subsequent 30 minutes served as a control period. The experimental group then received a bolus intravenous injection of 0.5 mg of recombinant renalase in 0.5 ml PBS. The control group was injected with either 0.5 mg BSA or 0.5 mg recombinant glutathione transferase in 0.5 ml of PBS. Blood pressure and heart rate were continuously measured and recorded.
Blood pressure is a function of cardiac output and peripheral vascular resistance, and is regulated by the sympathetic nervous system. Circulating catecholamines control heart rate, myocardial contractility, and the tone of resistance vessels. Since renalase circulates in blood and degrades catecholamines, we examined its in vivo effect on hemodynamic parameters. Within 30 seconds of a single bolus intravenous injection of recombinant renalase, systolic, diastolic and mean arterial pressure decreased by 23.5±1.3, 32.6±2.9 and 28.9±2.7% respectively, (n=4, p<0.001). […] Heart rate remained unchanged initially, and decreased slightly (6.4%) by 60 min, (FIG. 7A, lower panel). In control studies, blood pressure and heart rate were unaffected by either albumin or GST infusion (FIG. 7B). […] Alternatively, renalase could bind to a cognate receptor and modulate myocardial contractility and vascular resistance directly.

Assay [3] relates to nephrectomized rats. Put plainly: Intervention model for chronic renal failure (rat remnant kidney model). Format: in vivo. The note with it: nephrectomized rats, 10, 100, 500 microgram/kg SQ twice per day, 4-8 weeks. The text has this:
(§1) A rat partial (5/6) nephrectomy or rat remnant kidney model can be used as described (Wada, M et al; J Clin Invest 1997 Dec. 15; 100(12):2977-83). Male rats (2-3 months old, weighing about 150-200 g) are subjected to unilateral nephrectomy (either left or right kidney) first. A 2.0 cm skin incision is made in the ventral midline, with its cranial terminus 1.0 cm caudal to the xyphoid process. A 2.0 cm muscle incision is made along the midline. The right kidney is isolated and cleared of surrounding fat and connective tissue to clearly view the renal artery and vein, and ureter as they enter the hilus of the kidney. Care is exercised to minimize disturbance of the adrenal gland. A ligature (3/0 silk) is placed around the renal artery, vein and ureter. These vessels are then cut proximal to the kidney and the kidney is removed, taking care that the adrenal gland is not disturbed. The second step of the surgical procedure involves the removal of the 2/3 of the remaining kidney in 7-10 days after the first step. Plasma creatinine (Cr) and BUN levels rise dramatically due to the loss of renal mass and function. Over the next several weeks, plasma Cr and BUN levels of surviving animals decline somewhat toward normal values but remain elevated. Renal function then appears to remain relatively constant or stable for a period of variable duration. […]

Assay [4] concerns nephrectomized rats. Put plainly: Prophylactic model for chronic renal failure (rat remnant kidney model). Format: in vivo. The conditions noted are these: 100 microgram/kg SQ twice per day, 8-9 weeks.
From the text: as §1

Setting [5] is: rat, nadir between 60-90 minutes after injection, n=4, p<0.01.
Setting [6] is: rat, within 30 seconds of single bolus iv injection, 0.5 mg, n=4, p<0.001.

B1: Renalase: novel FAD-dependent monoamine oxidase secreted by the kidney that metabolizes dopamine, norepinephrine and epinephrine; SEQ ID NO: 2 (protein, listed as Homo sapiens)
chain: MAQVLIVGAGMTGSLCAALLRRQTSGPLYLAVWDKADDSGGRMTTACSPHNPQCTADLGAQYITCTPHYAKKHQRFYDELLAYGVLRPLSSPIEGMVMKEGDCNFVAPQGISSIIKHYLKESGAEVYFRHRVTQINLRDDKWEVSKQTGSPEQFDLIVLTMPVPEILQLQGDITTLISECQRQQLEAVSYSSRYALGLFYEAGTKIDVPWAGQYITSNPCIRFVSIDNKKRNIESSEIGPSLVIHTTVPFGVTYLEHSIEDVQELVFQQLENILPGLPQPIATKCQKWRHSQVTNAAANCPGQMTLHHKPFLACGGDGFTQSNFDGCITSALCVLEALKNYI
On to B1, for which, in assay [1], the “rank order potency of catecholamine metabolism” value was “dopamine>epinephrine>norepinephrine”. Also, the Arterial elastance in assay [2] (Table 1, renalase vs control 0.94 ± 0.09, n=3, NS) is 0.8 ± 0.04 mmHg/uL. Moreover, in assay [2] (Table 1, renalase vs control 11.3 ± 1.8, n=5, NS), the End diastolic pressure is 9.3 ± 1.5 mmHg. Further, the “Cardiac Output” value in assay [2] (Table 1, renalase vs control 45.8 ± 2.8, n=3, p<0.03) turned out to be 33.2 ± 1.5 mL/min. For the same molecule, the “Mean Arterial Pressure” value in assay [2] (Table 1, renalase vs control 106.4 ± 4.7, n=8, p<0.0001) is recorded as 65.3 ± 3.5 mmHg. Besides, the End systolic pressure in assay [2] (Table 1, renalase vs control 127.7 ± 8.1, n=5, p<0.004) was determined as 92.7 ± 2.7 mmHg. For the same molecule, the Heart rate in assay [2] (Table 1, renalase vs control 342 ± 6, n=5, p<0.004) came out at 304 ± 9 beats/min. For the same molecule, the Systemic vascular resistance in assay [2] (Table 1, renalase vs control 2323 ± 196, n=3, NS) came to 1966 ± 183 mmHg/L/min. Besides, the dP/dt in assay [2] (Table 1, renalase vs control 8604 ± 728, n=5, p<0.001) came to 5235 ± 442 mmHg/sec. In addition, in assay [2] (rat, by 60 min after injection), the “decrease in heart rate” value worked out at 6.4%. In assay [2] (rat, initially after bolus iv injection), the “heart rate, initial response” value is “unchanged”. In addition, in assay [2] (setting [5]), the “diastolic arterial pressure lower than baseline at nadir” value is recorded as 14.3±1.2%, the “mean arterial pressure lower than baseline at nadir” value amounted to 14.8±1.1% and the “systolic arterial pressure lower than baseline at nadir” value is reported as 16.5±1.5%. In assay [2] (rat, single bolus iv injection), the “time to recovery of blood pressure after initial fall” value is ≤ 2 min. Moreover, in assay [2] (setting [6]), the “decrease in diastolic arterial pressure” value is on record as 32.6±2.9%, the “decrease in mean arterial pressure” value is recorded as 28.9±2.7% and the “decrease in systolic arterial pressure” value worked out at 23.5±1.3%. For the same molecule, the “expected treatment benefit to Nx rats (plasma BUN, Cr)” value in assay [3] is recorded as “slow down chronic renal failure progression”. For the same molecule, the “expected effect on initiation of chronic renal failure (plasma BUN, Cr)” value in assay [4] is listed as “prevent, inhibit or delay the initiation of chronic renal failure”.
